What was measured:
Peptide N-YEPEA-C [1] = test: ITC, 293.1 K
Peptide N-YEPEA-C [2] = test: ITC, 303.1 K
Peptide N-YEPEA-C [3] = test: ITC, 310.1 K
Peptide N-YEPEA-C [4] = test: ITC, 298.1 K

Kd (Peptide N-YEPEA-C [1]): 240 nM
Stoichiometry (Peptide N-YEPEA-C [1]): 0.98
Kd (Peptide N-YEPEA-C [2]): 460 nM
Stoichiometry (Peptide N-YEPEA-C [2]): 0.94
Kd (Peptide N-YEPEA-C [3]): 850 nM
Stoichiometry (Peptide N-YEPEA-C [3]): 0.92
Kd (Peptide N-YEPEA-C [4]): 190 nM
Stoichiometry (Peptide N-YEPEA-C [4]): 0.99
B1: NbSyn2 (VHH)
VHH: QGQLVESGGGSVQAGGSLRLSCAASGIDSSSYCMGWFRQRPGKEREGVARINGLGGVKTAYADSVKDRFTISRDNAENTVYLQMNSLKPEDTAIYYCAAKFSPGYCGGSWSNFGYWGQGTQVTVSS
